# Assay results: IntAct's records for PubMed 22068056
# B1: SWI/SNF-related matrix-associated actin-dependent regulator of chromatin subfamily D member 3 (Mus musculus), Q6P9Z1 (parent)
# chain: MAADEVAGGARKATKSKLFEFLVHGVRPGMPSGARMPHQGAPMGPPGSPYMGSPAVRPGLAPAGMEPARKRAAPPPGQSQAQGQGQPVPTAPARSRSAKRRKMADKILPQRIRELVPESQAYMDLLAFERKLDQTIMRKRVDIQEALKRPMKQKRKLRLYISNTFNPAKPDAEDSDGSIASWELRVEGKLLDDPSKQKRKFSSFFKSLVIELDKDLYGPDNHLVEWHRTPTTQETDGFQVKRPGDLSVRCTLLLMLDYQPPQFKLDPRLARLLGLHTQSRSAIVQALWQYVKTNRLQDSHDKEYINGDKYFQQIFDCPRLKFSEIPQRLTALLLPPDPIVINHVISVDPSDQKKTACYDIDVEVEEPLKGQMSSFLLSTANQQEISALDSKIHETIESINQLKIQRDFMLSFSRDPKGYVQDLLRSQSRDLKVMTDVAGNPEEERRAEFYHQPWSQEAVSRYFYCKIQQRRQELEQSLVVRNT
# Variants of: B1
# Conditions: with smca4_mouse Smarca4, Q3TKT4
# Sequence of smca4_mouse Smarca4, Q3TKT4 (Q3TKT4 whole entry): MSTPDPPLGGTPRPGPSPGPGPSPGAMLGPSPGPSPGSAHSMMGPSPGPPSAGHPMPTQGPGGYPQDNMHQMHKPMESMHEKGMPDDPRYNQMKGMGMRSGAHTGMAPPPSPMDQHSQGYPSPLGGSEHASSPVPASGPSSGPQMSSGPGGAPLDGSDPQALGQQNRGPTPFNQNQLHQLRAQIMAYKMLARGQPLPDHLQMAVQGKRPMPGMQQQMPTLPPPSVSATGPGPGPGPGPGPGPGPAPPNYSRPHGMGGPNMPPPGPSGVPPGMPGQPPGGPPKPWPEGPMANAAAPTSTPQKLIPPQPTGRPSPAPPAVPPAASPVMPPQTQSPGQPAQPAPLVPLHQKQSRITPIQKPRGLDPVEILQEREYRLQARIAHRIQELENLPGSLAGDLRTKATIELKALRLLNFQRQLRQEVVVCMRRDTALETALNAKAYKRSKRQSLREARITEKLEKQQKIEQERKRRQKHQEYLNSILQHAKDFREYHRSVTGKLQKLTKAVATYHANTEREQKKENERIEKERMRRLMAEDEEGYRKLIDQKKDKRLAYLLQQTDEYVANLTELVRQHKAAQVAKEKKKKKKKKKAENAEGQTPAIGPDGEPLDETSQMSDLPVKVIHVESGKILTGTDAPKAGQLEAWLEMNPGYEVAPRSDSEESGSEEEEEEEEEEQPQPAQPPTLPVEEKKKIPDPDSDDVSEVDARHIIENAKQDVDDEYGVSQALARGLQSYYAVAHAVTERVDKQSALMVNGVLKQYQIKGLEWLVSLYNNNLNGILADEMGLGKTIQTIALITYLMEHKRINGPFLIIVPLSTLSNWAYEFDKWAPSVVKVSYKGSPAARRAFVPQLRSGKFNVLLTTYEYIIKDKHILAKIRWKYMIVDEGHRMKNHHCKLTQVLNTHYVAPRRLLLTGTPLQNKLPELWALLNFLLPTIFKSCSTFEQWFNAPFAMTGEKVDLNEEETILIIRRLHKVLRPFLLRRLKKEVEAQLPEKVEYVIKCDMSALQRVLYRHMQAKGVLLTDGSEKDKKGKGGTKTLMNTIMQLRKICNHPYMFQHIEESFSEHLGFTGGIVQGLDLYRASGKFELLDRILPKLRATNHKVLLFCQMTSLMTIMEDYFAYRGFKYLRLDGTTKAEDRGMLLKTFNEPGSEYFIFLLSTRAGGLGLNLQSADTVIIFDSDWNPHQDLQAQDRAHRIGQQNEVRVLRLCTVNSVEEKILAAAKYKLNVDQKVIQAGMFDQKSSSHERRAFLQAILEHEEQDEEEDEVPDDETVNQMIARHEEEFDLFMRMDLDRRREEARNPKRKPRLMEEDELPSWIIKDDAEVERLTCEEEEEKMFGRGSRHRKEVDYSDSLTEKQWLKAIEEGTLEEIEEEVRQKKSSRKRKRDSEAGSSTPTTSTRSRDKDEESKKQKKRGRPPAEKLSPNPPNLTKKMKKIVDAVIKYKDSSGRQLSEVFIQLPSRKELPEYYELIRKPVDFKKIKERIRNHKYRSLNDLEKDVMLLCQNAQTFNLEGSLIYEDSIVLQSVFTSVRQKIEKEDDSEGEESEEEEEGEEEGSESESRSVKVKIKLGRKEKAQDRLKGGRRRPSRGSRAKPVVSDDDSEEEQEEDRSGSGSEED
row,effect of a mutation on the interaction,Variant
1,disrupting interaction,MAADEVAGGARKATKSKLFEFLVHGVRPGMPSGARMPHQGAPMGPPGSPYMGSPAVRPGLAPAGMEPARKRAAPPPGQSQAQGQGQPVPTAPARSRSAKRRKMADKILPQRIRELVPESQAYMDLLAFERKLDQTIMRKRVDIQEALKRPMKQKRKLRLYISNTFNPAKPDAEDSDGSIASWELRVEGKLLDDPSKQKRKFSSFFKSLVIELDKDLYGPDNHLVEWHRAPTTQETDGFQVKRPGDLSVRCTLLLMLDYQPPQFKLDPRLARLLGLHTQSRSAIVQALWQYVKTNRLQDSHDKEYINGDKYFQQIFDCPRLKFSEIPQRLTALLLPPDPIVINHVISVDPSDQKKTACYDIDVEVEEPLKGQMSSFLLSTANQQEISALDSKIHETIESINQLKIQRDFMLSFSRDPKGYVQDLLRSQSRDLKVMTDVAGNPEEERRAEFYHQPWSQEAVSRYFYCKIQQRRQELEQSLVVRNT [T229A]
